# Source: paper PMC5559459, “Disruption of the structural and functional features of surfactant protein A by acrolein in cigarette smoke” (Scientific Reports, 2017)
# Molecular target: T1, recombinant human TLR4 (hTLR4) (human, UniProt O00206 24-631)
# T1 construct: Toll-like receptor 4, human, recombinant; No catalogue number is printed; the bought protein is probably a soluble extracellular construct with a tag (surmise); source: bought: Sino Biological Inc
# Test: ELISA; 500 ng hTLR4 coated on 96-well plates; 5 μg SP-A in 10 mM HEPES pH 7.4, 0.15 M NaCl, 5 mM CaCl2, 2% fatty acid-free BSA, 37 °C, 5 h; detected with anti-human SP-A polyclonal antibody and HRP anti-rabbit IgG; background (vehicle) subtracted
# Conditions: both partners purified
# T1 sequence (O00206 24-631): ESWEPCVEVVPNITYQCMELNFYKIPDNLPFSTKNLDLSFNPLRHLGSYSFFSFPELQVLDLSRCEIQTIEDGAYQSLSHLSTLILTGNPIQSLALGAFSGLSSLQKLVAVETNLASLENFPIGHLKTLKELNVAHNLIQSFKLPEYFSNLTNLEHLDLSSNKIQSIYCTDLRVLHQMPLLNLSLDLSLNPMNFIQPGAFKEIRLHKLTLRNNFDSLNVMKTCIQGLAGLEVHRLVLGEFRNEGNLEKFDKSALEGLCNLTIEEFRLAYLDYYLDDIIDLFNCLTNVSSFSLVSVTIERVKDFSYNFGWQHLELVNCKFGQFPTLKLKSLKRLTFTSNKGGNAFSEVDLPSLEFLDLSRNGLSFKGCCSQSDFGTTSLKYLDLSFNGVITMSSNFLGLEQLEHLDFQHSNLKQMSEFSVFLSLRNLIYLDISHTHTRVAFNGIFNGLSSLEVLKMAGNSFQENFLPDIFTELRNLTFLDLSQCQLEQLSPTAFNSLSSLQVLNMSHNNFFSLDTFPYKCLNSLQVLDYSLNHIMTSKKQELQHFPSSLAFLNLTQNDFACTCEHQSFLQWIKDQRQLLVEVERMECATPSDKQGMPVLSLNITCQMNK
row,Binder,percent decrease of binding against unmodified hSP-A [%]
1,"acrolein (10 µM)-modified recombinant human SP-A (natural protein, acrolein adducts (acrolein-lysine adducts, aldehyde adducts, modified free thiols); the sites were not mapped at this 2:1 ratio, pulmonary surfactant protein A, human SP-A1 cDNA expressed and secreted by CHO-K1 cells; Chemically modified form of m1; heterogeneous adducts; also called acrolein (10 μM)-modified SP-A; hSP-A pre-incubated with 10 µM acrolein; source: CHO-K1 cells, purified (mannose-Sepharose); 5 µM hSP-A incubated with 10 µM acrolein in 5 mM Tris-HCl pH 7.4 at 37 °C for 4 h, then dialyzed) not shown",77.1
2,"acrolein (100 µM)-modified recombinant human SP-A (natural protein, acrolein adducts; at a 20:1 molar ratio of acrolein to SP-A six modified residues were identified: His39, His116, Cys155, Lys180, Lys221, Cys224, pulmonary surfactant protein A, human SP-A1 cDNA expressed and secreted by CHO-K1 cells; Chemically modified form of m1; the sites were mapped by MS on a sample of 25 µM hSP-A with 500 µM acrolein (same 20:1 ratio); also called acrolein (100 μM)-modified SP-A; hSP-A pre-incubated with 100 µM acrolein; source: CHO-K1 cells, purified (mannose-Sepharose); 5 µM hSP-A incubated with 100 µM acrolein in …) not shown",72.6
3,"cigarette smoke extract (CSE)-modified recombinant human SP-A (natural protein, adducts from cigarette smoke extract (acrolein-lysine adducts, aldehyde adducts, modified free thiols); sites not mapped, pulmonary surfactant protein A, human SP-A1 cDNA expressed and secreted by CHO-K1 cells; Chemically modified form of m1; heterogeneous adducts; also called CSE-modified SP-A; hSP-A pre-incubated with CSE; source: CHO-K1 cells, purified (mannose-Sepharose); 5 µM hSP-A incubated with 10% CSE in 5 mM Tris-HCl pH 7.4 at 37 °C for 4 h, then dialyzed) not shown",71.9
